Experimental data from patent US20210299331A1, “PLURIPOTENT STEM CELL-DERIVED PLATE-SHAPED CARTILAGE AND METHOD FOR PRODUCING THE SAME” (KYOTO UNIVERSITY, priority 2018, published 2021).

Experiments:
[1] = test system: human iPS cell line QHJI-derived cartilaginous particles; test: In vitro integration of paired cartilaginous particles in round-bottom 96-well plate, cultured with FGFR inhibitor; format: cell-based
Protocol: (§1) Two cartilaginous particles were put into a well of a round-bottom 96-well plate (see FIGS. 1A and 1B) and cultured under the conditions of 37° C. and 5% CO2 in chondrogenic medium (DMEM (Sigma) with 1% ITS, 1% FBS, 2 mM L-glutamine (Thermo), 1×10^−4 M non-essential amino acids (Thermo), 1 mM sodium pyruvate (Thermo), 50 U of penicillin, […] streptomycin, 50 μg/mL ascorbic acid (Nacalai), 10 ng/mL BMP2 (Peprotech), 10 ng/mL TGFβ1 (Peprotech), and 10 ng/mL GDF5 (PTT)). In total, 84 wells, each of which contained a pair of cartilaginous particles, were prepared. The wells were divided into 7 groups (12 pairs per group), and each was subjected to macroscopic and histological analyses at the predetermined time points ([…] after the start of the integration experiment). The medium was changed every day gently and carefully so as not to change the positions of the cartilaginous particles.
To further investigate the effects of FGF on the integration, an FGFR inhibitor, NVP-BGJ398 (ChemScene LLC), was used in the culture. NVP-BGJ398 was dissolved in DMSO to prepare a 50 μM stock solution. In total, 30 new pairs of cartilaginous particles were cultured under the conditions described in the above (3). Fifteen pairs were cultured in a medium supplemented with vehicle (0.3 μL of DMSO), and the other 15 pairs were cultured in a medium supplemented with 0.3 μL of the NVP-BGJ398 stock solution (final concentration: 50 nM). After 14 days of culture, the samples were subjected to histological analysis.
(§2) The pairs of cartilaginous particles were fixed with 4% paraformaldehyde, processed, and embedded in paraffin. 20 to 150 serial sections were prepared around the integrated portion of the sample so that the sections contain the most contact area between the paired cartilaginous particles (see FIG. 1C). Serial sections with the greatest contact portion were selected and used for further analysis. The sections were stained with hematoxylin-eosin and safranin O-fast green-iron hematoxylin and immunostained with a goat anti-type I collagen antibody (Souther Biotech) and an anti-type II collagen antibody (Thermo).
(§3) For statistical analysis, the degree of integration of cartilaginous particles at each time point was graded as follows: grade 0, no integration; grade 1, perichondrium-like membrane integration; grade 2, cartilage integration (Table 2). The grades are non-parametric data, and statistical analysis was performed using the Steel-Dwass test. All the samples were graded as 0 (no integration) on day 0 and graded as 2 (cartilage integration) on day 56.

[2] = test system: human iPS cell line QHJI-derived cartilaginous particles; test: In vitro integration of paired cartilaginous particles in round-bottom 96-well plate, cultured with FGF18; format: cell-based; conditions: for Grade 0 No integration (number of pairs) / Grade 1 Integration by perichondrium-like membrane (number of pairs) / Grade2 Integration by cartilage (number of pairs): 15 pairs per group
Protocol: as §1
Recombinant human FGF18 (PeproTech) was dissolved in phosphate-buffered saline (PBS) to prepare a stock solution (100 μg/mL). In total, 90 pairs of cartilaginous particles were cultured under the conditions described in the above (3). One pair per well was cultured in 0.3 mL of medium. Forty-five pairs were cultured in a medium supplemented with vehicle (0.3 μL of PBS), and the other 45 pairs were cultured in a medium supplemented with 0.3 μL of the FGF18 stock solution (final concentration: 100 ng/mL). The 45 pairs in each treatment group were further separated into three equal-sized groups and subjected to histological analysis (3, 7, or 14 days after the start of the experiment).
as §2, §3

[3] = Day 14, NVP-BGJ398 50 nM, 15 pairs per group, P < 0.01 vs Vehicle (Steel-Dwass)
[4] = Day 14, FGF18 100 ng/mL, P < 0.01 vs Vehicle (Steel-Dwass)

## CCN1CCN(c2ccc(Nc3cc(N(C)C(=O)Nc4c(Cl)c(OC)cc(OC)c4Cl)ncn3)cc2)CC1 [NVP-BGJ398]
[1]; [3]
  Grade 0 No integration (number of pairs): 15
  Grade 1 Integration by perichondrium-like membrane (number of pairs): 0
  Grade2 Integration by cartilage (number of pairs): 0
[1]; Day 14, NVP-BGJ398 50 nM, 15 pairs, vehicle 11 out of 15
  Pairs of cartilaginous particles that showed integration: no pairs
[1]; NVP-BGJ398 50 nM in medium
  Effect of addition to the medium on integration of cartilaginous particles: inhibited the integration of cartilaginous particles

B1: FGF18: Recombinant human FGF18 (PeproTech), an FGF receptor agonist added to the culture medium (protein, UniProt O76093 28-207, looked up)
Fibroblast growth factor 18: EENVDFRIHVENQTRARDDVSRKQLRLYQLYSRTSGKHIQVLGRRISARGEDGDKYAQLLVETDTFGSQVRIKGKETEFYLCMNRKGKLVGKPDGTSKECVFIEKVLENNYTALMSAKYSGWYVGFTKKGRPRKGPKTRENQQDVHFMKRYPKGQPELQKPFKYTTVTKRSRRIRPTHPA
[2]; Day 3, FGF18 100 ng/mL
  Grade 0 No integration (number of pairs): 12
  Grade 1 Integration by perichondrium-like membrane (number of pairs): 3
  Grade2 Integration by cartilage (number of pairs): 0
[2]; Day 7, FGF18 100 ng/mL
  Grade 0 No integration (number of pairs): 10
  Grade 1 Integration by perichondrium-like membrane (number of pairs): 5
  Grade2 Integration by cartilage (number of pairs): 0
[2]; [4]
  Grade 0 No integration (number of pairs): 1
  Grade 1 Integration by perichondrium-like membrane (number of pairs): 14
  Grade2 Integration by cartilage (number of pairs): 0
[2]; Day 14, FGF18 100 ng/mL, vehicle showed minimal integration
  Integration of treated cartilaginous particles (observation): substantial integration
[2]; Day 14, Steel-Dwass test
  Integration grade versus vehicle-treated pairs (statistics): Significant difference
[2]; FGF18 100 ng/mL in medium
  Effect of addition to the medium on integration of cartilaginous particles: accelerated the integration of cartilaginous particles
[2]; FGF18 100 ng/mL, safranin O-fast green-iron hematoxylin sections
  Histological finding in treated cartilaginous particles: thick connection of the perichondrium-like membranes
